Target: ClpP1/P2 heptameric ring 3ClpP1 + 4ClpP2 (Synechococcus elongatus) (UniProt P54415)
Test: native MS; nano-ESI Q-ToF, 200 mM ammonium acetate with 2 mM TEA (weakly denaturing)

## ClpP1/P2 heptameric ring 3ClpP1 + 4ClpP2 (from UniProt P54415 1-197; O34125 1-240) (complex)
  stoichiometry N: 2

— article PMC4673316
